{"source": "patent US6323177", "about": "“Interaction of reelin with very low density lipoprotein (VLDL) receptor for screening and therapies” (St. Jude Children's Research Hospital, dated 2001)", "binders": {"B1": {"name": "human very low density lipoprotein (VLDL) receptor, expressed on transfected 293T cells (receptor)", "chain": "not shown"}}, "biological_target": "Reelin (full length, expressed from pCr1 in 293T cells, conditioned medium) (mouse)", "assay": "cell binding assay: 293T cells with or without VLDL receptor incubated with Reelin conditioned medium, washed, lysed, Western blot with G10", "description": "Reelin-VLDL receptor binding assay. 293T cells transfected with or without the VLDL receptor are washed in phosphate buffer saline (PBS) containing divalent cations and distributed into Eppendorf tubes (approximately 10^6 cells/sample). For Reelin binding assays, cells are incubated with conditioned medium containing 20–100 ng of Reelin for 30 min to 2 h at 4° C. or room temperature. Cells are then washed again with PBS and solubilized in […] of TxB buffer (150 mM NaCl, 50 mM Tris-Cl pH7.5, 1% Triton-X, 1 mM EDTA) supplemented with 0.1 mg/ml Aprotinin, with 0.1 mg/m Leupeptin, 20 mM Sodium Fluoride, and 1 mM Sodium Orthovanadate. Cell extracts are clarified by centrifugation at 13,000×g for 10 min at 4° C. and subjected to Western blot analysis to reveal the presence of Reelin retained by the VLDL receptor.\nWestern blot analysis. Ten µl of cell extract per lane are analyzed by SDS-PAGE on 4–12% minigels (Novex). Proteins are transferred to nitrocellulose membranes and blocked in 3% milk in Tris buffer saline (TBS) for 1 h at room temperature. Proteins bound to the membranes are incubated at 4° C. overnight in antibody diluted in 0.3% milk-TBS supplemented with 0.1% Tween (TBST). Ascites fluids containing the mouse monoclonal G10 antibody (de Bergeyck et al., J. Neurosci. Methods, 82:17–24, 1998) are used at a 1:1000 dilution to detect Reelin. […]"}
{"binder": "B1", "values": [{"measurement": "binding result", "result": "binds"}]}
